Common to all, as to assay: GABA formation by Berthelot reaction, A630, Lineweaver-Burk plot
Substrate in data set [1]: N[C@@H](CCC(=O)O)C(=O)O
It is filed as biochemical, Escherichia coli. The conditions noted are these: 0.01 mM PLP, 200 mM Na2HPO4-citric acid buffer pH 4.0, 37 °C, 5-100 mM MSG.

Substrate in data set [2]: N[C@@H](CCC(=O)O)C(=O)O
It is filed as biochemical, Streptomyces chromofuscus. To be noted: 0.01 mM PLP, 200 mM Na2HPO4-citric acid buffer pH 4.2, 37 °C, 5-100 mM MSG.

Substrate in data set [3]: N[C@@H](CCC(=O)O)C(=O)O
It is filed as biochemical, Streptomyces toxytricini. To be noted: 0.01 mM PLP, 200 mM Na2HPO4-citric acid buffer pH 5.2, 37 °C, 5-100 mM MSG.

B1: GadB (Escherichia coli K-12) (protein)
chain: MDKKQVTDLRSELLDSRFGAKSISTIAESKRFPLHEMRDDVAFQIINDELYLDGNARQNLATFCQTWDDENVHKLMDLSINKNWIDKEEYPQSAAIDLRCVNMVADLWHAPAPKNGQAVGTNTIGSSEACMLGGMAMKWRWRKRMEAAGKPTDKPNLVCGPVQICWHKFARYWDVELREIPMRPGQLFMDPKRMIEACDENTIGVVPTFGVTYTGNYEFPQPLHDALDKFQADTGIDIDMHIDAASGGFLAPFVAPDIVWDFRLPRVKSISASGHKFGLAPLGCGWVIWRDEEALPQELVFNVDYLGGQIGTFAINFSRPAGQVIAQYYEFLRLGREGYTKVQNASYQVAAYLADEIAKLGPYEFICTGRPDEGIPAVCFKLKDGEDPGYTLYDLSERLRLRGWQVPAFTLGGEATDIVVMRIMCRRGFEMDFAELLLEDYKASLKYLSDHPKLQGIAQQNSFKHT
For the protein B1, in data set [1], the Km is 35.83 ± 2.40 mM, the Vmax turned out to be 12.5 ± 0.72 µmol/min/mg, the catalytic constant (kcat) stood at 11 ± 0.88 s⁻¹ and the kcat/Km came to 310 ± 20 M⁻¹ s⁻¹.

B2: ScGAD (Streptomyces chromofuscus) (protein)
chain: MPLHQGADRAADIPEEDRAELRRLSLNPFYGEADPVSEMTSAPPTQRLPEGPTPPHTAYQLVHDELMLDGNSRLNLATFVTTWMEPQAGVLMAECQDKNMIDKDEYPRTAELERRCVAMLADLWNAPDPATAVGCSTTGSSEACMLAGLALKRRWAKRNAARYPATARPNLVMGVNVQVCWEKFCTFWEVEARLVPMEGDRFHLDPQAAADLCDEDTIGVVAVLGSTFDGSYEPVAELCAVLDALQERTGLDVPVHVDGASGAMIAPFLDEDLVWDFRLPRVSSINTSGHKYGLVYPGVGWALWRSPAELPEELVFRVNYLGGDMPTFALNFSRPGAQVVAQYYTFLRLGRDGYRAVQQTARDIATTLSARIERLGGFRLLTRGDQLPVFAFTTASDVTNFDVFDVSRRLREHGWLVPAYTFPAHREDLSVLRVVCRNGFSADLAAMLVADLKRVLPELRAQERPMDRDPSAATAFHH
Regarding B2, in data set [2], the Km turned out to be 23.25 ± 2.07 mM, the maximal velocity (Vmax) worked out at 29.9 ± 2.16 µmol/min/mg, the catalytic constant (kcat) is 28.1 ± 1.99 s⁻¹ and the specificity constant (kcat/Km) was 1210 ± 90 M⁻¹ s⁻¹.

B3: StGAD (Streptomyces toxytricini) (protein)
chain: MALHKTKDVTGGDTGTDVFTTALSGRVLPKYRMPEEHSPSEAVYALLRNELLLDGNAAQNLATFCTTWSDDGVHRLMNECLDKNMVDKDEYPQTAEIEARCVNILAHLWHAPAEDGPATGCSTTGSSEAAMLGGLALKWRWRARRRAQGLPADRPNLVCGPVQVCWEKFARYFDVELRQIPLEEDATGLRPHQLAEYVDENTIGVVAILGVTYTCDYEPVADIAAALDAIQQEHGWDVPIHVDGASGGLVAPFLHPDVVWDFALPRVASINTSGHKYGLAPLGVGWVVWRTADLLPPELVFDVDYLGGDMPTFALNFSRPGGEAIAQYYLFLRLGRSGYRSVHQSCADTARFLAGEIAAMGPFTLLYDGQGALPAVSYRLTDPAAAGFTLYDLSDRLRMRGWQVPAYPLPARRDDTVIQRVLIRHGVTLDQIALLAEDMRRALDHLRAAPPTQPPTAPRSGFHH
notes: full-length ORF (1395 bp, about 464 residues, 53 kDa) in pET28a (NdeI/HindIII), His6-tagged, expressed in E. coli BL21(DE3), Ni-NTA purified
For B3, in data set [3], the Michaelis constant (Km) turned out to be 7.67 ± 0.55 mM, the Vmax was 0.226 ± 0.01 µmol/min/mg, the turnover number (kcat) was found to be 0.2 ± 0.02 s⁻¹ and the catalytic efficiency (kcat/Km) turned out to be 26 ± 3 M⁻¹ s⁻¹.

(Values after publication PMC6429771, “Identification of new glutamate decarboxylases from Streptomyces for efficient production of γ-aminobutyric acid in engineered Escherichia coli” (Journal of Biological Engineering, 2019).)
